Data: patent US20230050440A1 (Seagen, published 2023)
Read-outs that look alike come from different tables or passages of the source. Each block holds one binder with its values, some of them ahead of it.

Assays:
[1] = molecular target: T1, cynomolgus monkey TIGIT expressed on cells (cynomolgus monkey); assay: flow cytometry titration, HEK 293 cells expressing cynomolgus TIGIT
T1 construct: HEK 293 cells stably expressing cynomolgus monkey TIGIT or cynomolgus T cells; also called Cyno TIGIT HEK

[2] = molecular target: T2, human TIGIT expressed on cells (human, UniProt Q495A1 22-244); assay: flow cytometry on HEK 293 cells expressing the target, MFI over parental HEK 293;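 note: bound antibody detected with PE-labelled anti-human IgG, 15 min on ice. FOB equals median fluorescence on TIGIT-positive cells divided by that on target-negative cells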
T2 construct: HEK 293 cells stably expressing human TIGIT, primary human T cells or Jurkat effector cells; the cell is named under assay; also called Human TIGIT HEK
T2 sequence: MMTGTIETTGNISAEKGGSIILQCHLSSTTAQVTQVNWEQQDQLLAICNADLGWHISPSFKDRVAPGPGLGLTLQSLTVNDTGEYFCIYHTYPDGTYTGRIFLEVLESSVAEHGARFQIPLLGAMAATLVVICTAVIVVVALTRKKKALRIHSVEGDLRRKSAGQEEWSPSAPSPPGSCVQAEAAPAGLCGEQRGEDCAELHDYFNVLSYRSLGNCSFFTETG

[3] = molecular target: T1, cynomolgus monkey TIGIT expressed on …; assay: as above
[4] = molecular target: T3, monomeric human TIGIT (Sino Biological 10917-H08H) (human, UniProt Q495A1 22-138, biotinylated in the MSD-SET assay); assay: BLI (ForteBio), IgG on sensor, monovalent
T3 construct: Bought protein; also called Human TIGIT monomer; Human TIGIT-His; not shown: His tag
T3 sequence: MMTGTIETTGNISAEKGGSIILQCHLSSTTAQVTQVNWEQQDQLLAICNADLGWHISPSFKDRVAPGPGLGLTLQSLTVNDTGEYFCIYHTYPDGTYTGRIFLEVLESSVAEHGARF

[5] = molecular target: T4, cyno TIGIT-Fc (cynomolgus monkey); assay: BLI (ForteBio), IgG on sensor, avid
T4 construct: not shown: Fc part

[6] = molecular target: T2, human TIGIT expressed on cells; assay: flow cytometry titration, HEK 293 cells expressing human TIGIT
[7] = molecular target: T3, monomeric human TIGIT (Sino Biological …); assay: BLI (ForteBio Octet RED384), IgG on AHQ sensor, 100 nM antigen, 1:1 model
[8] = molecular target: T5, recombinant dimeric human TIGIT-Fc (Acro Biosystems TIT-H5254) (human, UniProt Q495A1 22-141); assay: as above
T5 construct: Bought protein; also called hTIGIT-Fc; not shown: Fc part of the bought fusion protein
T5 sequence: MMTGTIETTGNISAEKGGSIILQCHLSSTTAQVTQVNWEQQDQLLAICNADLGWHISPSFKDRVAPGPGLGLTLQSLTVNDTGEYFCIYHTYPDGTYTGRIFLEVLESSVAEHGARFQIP

[9] = molecular target: T1, cynomolgus monkey TIGIT expressed on …; assay: flow cytometry titration, HEK 293 cells expressing cynomolgus TIGIT; remark: listed apart in the source
[10] = molecular target: T2, human TIGIT expressed on cells; assay: flow cytometry titration, HEK 293 cells expressing human TIGIT; remark: listed apart in the source
[11] = molecular target: T2, human TIGIT expressed on cells; assay: flow cytometry competition with human CD112-Fc on 293-hTIGIT cells
[12] = molecular target: T2, human TIGIT expressed on cells; assay: flow cytometry competition with hCD112-Fc-AlexaFluor647 on 293-hTIGIT cells; the axis 'Percent Blockade' falls as ligand signal is lost
[13] = molecular target: T2, human TIGIT expressed on cells; assay: flow cytometry competition with hCD155-Fc-AlexaFluor647 on 293-hTIGIT cells; the axis 'Percent Blockade' falls as ligand signal is lost
[14] = molecular target: T2, human TIGIT expressed on cells; assay: flow cytometry competition with human CD155-Fc on 293-hTIGIT cells
[15] = molecular target: T6, murine FcγRIV expressed on CHO cells (mouse, UniProt A0A0B4J1G0 21-249); assay: flow cytometry on CHO cells expressing mCD16 (murine FcγRIV), anti-mouse IgG FITC
T6 construct: also called mCD16 (the murine form of FcγRIVa)
T6 sequence: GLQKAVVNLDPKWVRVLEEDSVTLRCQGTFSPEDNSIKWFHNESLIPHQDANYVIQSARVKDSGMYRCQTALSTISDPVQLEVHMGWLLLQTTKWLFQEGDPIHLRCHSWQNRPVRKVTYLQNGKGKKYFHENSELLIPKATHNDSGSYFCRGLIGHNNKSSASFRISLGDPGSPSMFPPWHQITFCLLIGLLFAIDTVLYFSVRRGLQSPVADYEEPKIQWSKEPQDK

T4 sequence (chain, as listed by the source limits assumed): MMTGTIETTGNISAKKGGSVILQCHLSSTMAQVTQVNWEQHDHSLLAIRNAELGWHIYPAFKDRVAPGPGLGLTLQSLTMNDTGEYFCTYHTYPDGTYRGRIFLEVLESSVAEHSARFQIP
T1 sequence (chain, as listed by the source limits assumed): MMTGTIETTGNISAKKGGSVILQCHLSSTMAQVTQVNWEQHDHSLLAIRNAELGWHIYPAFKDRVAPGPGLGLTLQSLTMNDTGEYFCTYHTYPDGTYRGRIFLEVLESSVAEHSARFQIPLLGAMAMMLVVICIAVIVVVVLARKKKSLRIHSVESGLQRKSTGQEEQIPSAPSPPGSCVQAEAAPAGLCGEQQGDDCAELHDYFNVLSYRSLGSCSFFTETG

B1: Clone 2 (antibody, V domains shown)
VH: EVQLVESGGGLVQPGGSLRLSCAASGFTFSDHYMDWVRQAPGKGLEWVGRTRNKANSYTTEYAASVKGRFTISRDDSKNSLYLQMNSLKTEDTAVYYCARGQYYYGSSSRGYYYMDVWGQGTTVTVSS
VL: EIVLTQSPGTLSLSPGERATLSCRASQSVSSSYLAWYQQKPGQAPRLLIYGASSRATGIPDRFSGSGSGTDFTLTISRLEPEDFAVYYCQQAVPSPLTFGGGTKVEIK
notes: Fully human IgG produced in yeast; also called anti-TIGIT antibody clone 2
EC50 [1]: 0.32 µg/mL | FOB (Fold Over Background) [2]: 158 fold | FOB (Fold Over Background) [3]: 162 fold | Kd [4]: 8.18 nM | Kd [5]: 1.34 nM | EC50 [6]: 0.15 µg/mL | Kd [7]: 10.1 nM | Kd [8]: 0.956 nM

B2: Clone 13 (antibody, IgG1, V domains shown)
VH: QVQLVQSGAEVKKPGSSVKVSCKASGGTFSSYAISWVRQAPGQGLEWMGSIIPIFGTANYAQKFQGRVTITADESTSTAYMELSSLRSEDTAVYYCARGPSEVGAILGYVWFDPWGQGTLVTVSS
VL: not shown
notes: also called anti-TIGIT clone 13; c13 hIgG1
EC50 [1]: 0.1 µg/mL | EC50 [9]: 0.13 µg/mL | EC50 [10]: 0.09 µg/mL | FOB (Fold Over Background) [2]: 212 fold | FOB (Fold Over Background) [3]: 224 fold | IC50 (read off the curve) [11]: ~0.1 µg/mL | Kd [4]: 2.63 nM | IC50 (read off the curve) [12]: ~0.1 µg/mL | Kd [5]: 1.04 nM | EC50 [6]: 0.07 µg/mL | IC50 (read off the curve) [13]: ~0.1 µg/mL | Kd [7]: 2.56 nM | Kd [8]: 0.543 nM | IC50 (read off the curve) [14]: ~0.1 µg/mL

B5: Clone 16 (antibody, V domains shown)
VH: QVQLVQSGAEVKKPGSSVKVSCKASGGTFSSYAISWVRQAPGQGLEWMGGIIPIFGTASYAQKFQGRVTITADESTSTAYMELSSLRSEDTAVYYCARQSTWHKLYGTDVWGQGTTVTVSS
VL: DIQMTQSPSSVSASVGDRVTITCRASQGISSWLAWYQQKPGKAPKLLIYAASSLQSGVPSRFSGSGSGTDFTLTISSLQPEDFATYYCQQGDSLPPTFGGGTKVEIK
notes: Fully human IgG produced in yeast
EC50 [1]: 0.1 µg/mL | FOB (Fold Over Background) [2]: 192 fold | FOB (Fold Over Background) [3]: 27 fold | Kd [4]: 2.52 nM | Kd [5]: 4.67 nM | EC50 [6]: 0.07 µg/mL | Kd [7]: 2.06 nM | Kd [8]: 0.69 nM

B6: Clone 25 (antibody, V domains shown)
VH: QVQLVQSGAEVKKPGASVKVSCKASGYTFTSYAISWVRQAPGQGLEWMGWISAYNGNTNYAQKLQGRVTMTTDTSTSTAYMELRSLRSDDTAVYYCARDLSSFWSGDVLGAFDIWGQGTMVTVSS
VL: DIQMTQSPSSLSASVGDRVTITCRASQSISSYLNWYQQKPGKAPKLLIYAASSLQSGVPSRFSGSGSGTDFTLTISSLQPEDFATYYCQQSVPPRTFGGGTKVEIK
notes: Fully human IgG produced in yeast; also called anti-TIGIT clone 25
EC50 [1]: 0.19 µg/mL | FOB (Fold Over Background) [2]: 205 fold | FOB (Fold Over Background) [3]: 247 fold | Kd [4]: 1.27 nM | Kd [5]: 1.5 nM | EC50 [6]: 0.14 µg/mL | Kd [7]: 0.618 nM | Kd [8]: 0.62 nM

The remaining lines, values ahead:

EC50 [9]: 0.07 µg/mL | EC50 [10]: 0.05 µg/mL | IC50 (read off the curve) [11]: ~0.04 µg/mL | IC50 (read off the curve) [14]: ~0.1 µg/mL
B3: anti-TIGIT clone 13 mIgG1 (antibody)
heavy: QVQLVQSGAEVKKPGSSVKVSCKASGGTFSSYAISWVRQAPGQGLEWMGSIIPIFGTANYAQKFQGRVTITADESTSTAYMELSSLRSEDTAVYYCARGPSEVGAILGYVWFDPWGQGTLVTVSSAKTTPPSVYPLAPGSAAQTNSMVTLGCLVKGYFPEPVTVTWNSGSLSSGVHTFPAVLESDLYTLSSSVTVPSSPRPSETVTCNVAHPASSTKVDKKIVPRDCGCKPCICTVPEVSSVFIFPPKPKDVLTITLTPKVTCVVVDISKDDPEVQFSWFVDDVEVHTAQTQPREEQFNSTFRSVSELPIMHQDWLNGKEFKCRVNSAAFPAPIEKTISKTKGRPKAPQVYTIPPPKEQMAKDKVSLTCMITDFFPEDITVEWQWNGQPAENYKNTQPIMNTNGSYFVYSKLNVQKSNWEAGNTFTCSVLHEGLHNHHTEKSLSHSPGK
light: not shown
notes: also called c13 mIgG1; 13-1

Kd [15]: 3330 nM
B4: anti-TIGIT c13 mIgG2a LALA-PG (antibody)
heavy chain: QVQLVQSGAEVKKPGSSVKVSCKASGGTFSSYAISWVRQAPGQGLEWMGSIIPIFGTANYAQKFQGRVTITADESTSTAYMELSSLRSEDTAVYYCARGPSEVGAILGYVWFDPWGQGTLVTVSSAKTTAPSVYPLAPVCGDTTGSSVTLGCLVKGYFPEPVTLTWNSGSLSSGVHTFPAVLQSDLYTLSSSVTVTSSTWPSQSITCNVAHPASSTKVDKKIEPRGPTIKPCPPCKCPAPNAAGGPSVFIFPPKIKDVLMISLSPIVTCVVVDVSEDDPDVQISWFVNNVEVHTAQTQTHREDYNSTLRVVSALPIQHQDWMSGKEFKCKVNNKDLGAPIERTISKPKGSVRAPQVYVLPPPEEEMTKKQVTLTCMVTDFMPEDIYVEWTNNGKTELNYKNTEPVLDSDGSYFMYSKLRVEKKNWVERNSYSCSVVHEGLHNHHTTKSFSRTPGK
light chain: not shown
notes: also called LALA TIGIT
